Experimental data: patent US20170258948A1 (Bristol-Myers Squibb, published 2017)

Tests used:
[1] = molecular target: T1, human PD-L1 (Programmed Death Ligand-1), protein used in Biacore and ELISA (human, UniProt Q9NZQ7 19-239); experiment: SPR (Biacore), human PD-L1
T1 construct: also called hPD-L1; CD274

cyno PD-L1 = molecular target: T2, cyno PD-L1 (cyno (cynomolgus monkey), UniProt G7PSE7 19-239); experiment: SPR (Biacore), cyno PD-L1
T2 construct: also called cynomolgus PD-L1

[2] = molecular target: T1, human PD-L1 (Programmed Death …); experiment: ELISA, inhibition of binding of human CD80 (B7-1) to human PD-L1
[3] = molecular target: T1, human PD-L1 (Programmed Death …); experiment: method not stated (Table 1, binding properties of anti-PD-L1 Adnectins)
[4] = molecular target: T1, human PD-L1 (Programmed Death …); experiment: summary sentence on the binding data (Biacore); limit tied to E01 by Table 2
[5] = molecular target: T3, human PD-L1 expressed on cells (hPD-L1-positive L2987 human lung carcinoma cells); L2987 xenograft and human … (human, UniProt Q9NZQ7 19-290); experiment: cell-based or functional assay
T3 sequence (Q9NZQ7 19-290): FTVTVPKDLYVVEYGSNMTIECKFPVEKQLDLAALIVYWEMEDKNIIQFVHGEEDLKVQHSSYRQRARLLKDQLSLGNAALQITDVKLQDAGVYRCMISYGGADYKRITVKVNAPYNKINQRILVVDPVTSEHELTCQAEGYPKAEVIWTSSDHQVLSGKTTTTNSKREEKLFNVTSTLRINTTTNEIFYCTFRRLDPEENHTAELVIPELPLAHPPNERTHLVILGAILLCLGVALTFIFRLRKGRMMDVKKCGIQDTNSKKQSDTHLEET

[6] = molecular target: T1, human PD-L1 (Programmed Death …); experiment: summary sentence on the binding data (Biacore); limit tied to A02 by Table 2
[7] = molecular target: T3, human PD-L1 expressed on cells …; experiment: cell binding to human PD-L1 positive L2987 cells; Cys-capped form; Cys-capped form
[8] = molecular target: T3, human PD-L1 expressed on cells …; experiment: radiotracer binding to cells on ice, gamma counting
Description: After the incubation period, cell samples were centrifuged at 200×g and the supernatant was discarded. Cell pellets were resuspended in 1 mL PBS+0.5% BSA and the wash procedure repeated for a total of 3 washes. Following the final wash, cells were again centrifuged at 200×g and the supernatant was discarded. The radioactivity of the remaining cell pellets was then measured by gamma counter.

T2 sequence (G7PSE7 entry or part of it): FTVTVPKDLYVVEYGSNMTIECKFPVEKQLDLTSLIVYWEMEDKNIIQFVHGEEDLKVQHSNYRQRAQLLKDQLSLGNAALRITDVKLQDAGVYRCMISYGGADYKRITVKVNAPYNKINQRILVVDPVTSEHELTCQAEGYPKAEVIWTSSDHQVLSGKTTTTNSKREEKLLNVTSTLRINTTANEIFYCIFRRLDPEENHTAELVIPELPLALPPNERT
T1 sequence (Q9NZQ7 19-239 limits assumed): as the sequence (G7PSE7 entry or part of it) above, with T33A, S34A, N62S, Q68R, R82Q, L173F, A185T, I192T, L215H counted along it

Binder	Kd (cyno PD-L1) [nM]	Kd [1] [nM]	koff [1] [s⁻¹]	kon [1] [M⁻¹ s⁻¹]	other results
ATI-1421E04 (designed binder, 10Fn3 Adnectin; also called AT1-1421E04) MGVSDVPRDLEVVAATPTSLLISWSYNGPIEYRITYGETGGNSPVQEFTVPDQQATISGLKPGVDYTITVYALEEAHYSRQSISINYRTEIDKPSQHHHHHH	–	–	–	–	Kd [3]: 5.6 nM
ADX_5417_E01 (designed binder) MGVSDVPRDLEVVAATPTSLLISWRAQLSPSFYYRITYGETGGNSPVQEFTVPNDVMTATISGLKPGVDYTITVYAVTTHGVYFYSPISINYRTPCHHHHHH	–	0.013	0.00026	2e+07	Kd [4]: < 0.1 nM
cold (unlabeled) A02 Adnectin (designed binder) EVVAATPTSLLISWSYDGPIDRYYRITYGETGGNSPVQEFTVPPDQKTATISGLKPGVDYTITVYAVRLEEAHYNREFPISINYRT	–	–	–	–	PET uptake of ^64Cu-A02 in hPD-L1(+) L2987 relative to hPD-L1(-) HT-29 xenografts when co-injected with 3 mg/kg unlabeled A02 Adnectin [5]: 1.04 fold
ADX_5322_A02 (designed binder) MGVSDVPRDLEVVAATPTSLLISWSYDGPIDRYYRITYGETGGNSPVQEFTVPPDQKTATISGLKPGVDYTITVYAVRLEEAHYNREFPISINYRTPCHHHHHH	–	0.228	0.00057	2.5e+06	Kd [6]: < 1 nM
ADX_5322_A02 (Cys-Capped) (designed binder, Cys-Capped (so in the source); capping group not stated) MGVSDVPRDLEVVAATPTSLLISWSYDGPIDRYYRITYGETGGNSPVQEFTVPPDQKTATISGLKPGVDYTITVYAVRLEEAHYNREFPISINYRTPCHHHHHH	–	–	–	–	EC50 [7]: 0.43 nM
ATI-1420D05 (designed binder, 10Fn3 Adnectin) MGVSDVPRDLEVVAATPTSLLISWTAYYSTIKYRITYGETGGNSPVQEFTVGPKHHATISGLKPGVDYTITVYAYNTKPGYHAHQISINYRTEIDKPSQHHHHHH	–	–	–	–	Kd [3]: 9.5 nM
ATI-1420B09 (designed binder, 10Fn3 Adnectin) MGVSDVPRDLEVVAATPTSLLISWHKFSSLMSYRITYGETGGNSPVQEFTVGSVNATISGLKPGVDYTITVYAIHNVGFISINYRTEIDKPSQHHHHHH	–	–	–	–	Kd [3]: 2.5 nM
^64Cu-A02-NODAGA (designed binder, C-terminal cysteine (of the added PC) linked to maleimide-NODAGA chelating ^64Cu) GVSDVPRDLEVVAATPTSLLISWSYDGPIDRYYRITYGETGGNSPVQEFTVPPDQKTATISGLKPGVDYTITVYAVRLEEAHYNREFPISINYRTPC	–	–	–	–	PET radiotracer uptake in hPD-L1(+) L2987 xenografts relative to hPD-L1(-) HT-29 xenografts in mice (final 10 minutes of the 2 h time-activity curve) [5]: 3.05 fold
^18F-A02 Adnectin ([^18F]-A02-4PEG-DBCO-FPPEGA) (designed binder, C-terminal cysteine linked to Maleamide-DBCO-FFP(18F) (maleimide-PEG4-DBCO clicked with [^18F]-FPPEGA)) GVSDVPRDLEVVAATPTSLLISWSYDGPIDRYYRITYGETGGNSPVQEFTVPPDQKTATISGLKPGVDYTITVYAVRLEEAHYNREFPISINYRTPC	–	–	–	–	maximum radiotracer uptake ratio in hPD-L1(+) L2987 xenografts vs. hPD-L1(-) HT-29 xenografts (PET, mice) [5]: 3.53 ratio
^64Cu-E01-NODAGA (designed binder, C-terminal cysteine (of the added PC) linked to maleimide-NODAGA chelating ^64Cu, Modified E01 (ADX_5417_E01 with N leader and C-terminal PC); also called ^64Cu-E01 anti-PD-L1 Adnectin) GVSDVPRDLEVVAATPTSLLISWRAQLSPSFYYRITYGETGGNSPVQEFTVPNDVMTATISGLKPGVDYTITVYAVTTHGVYFYSPISINYRTPC	–	–	–	–	fold higher cell associated radioactivity against hPD-L1-negative HT-29 cells [8]: 44.6 fold

Now from value to binder, other results behind:

Kd (cyno PD-L1) [nM]	Binder	Kd [1] [nM]	koff [1] [s⁻¹]	kon [1] [M⁻¹ s⁻¹]	other results
0.06	ATI-967 (designed binder, 10Fn3 Adnectin; also called parent of ADX_5417_E01) MGVSDVPRDLEVVAATPTSLLISWQGQLSPSFYYRITYGETGGNSPVQEFTVPVASGTATISGLKPGVDYTITVYAVTSHGIYFYAPISINYRTEIDKPSQHHHHHH	0.032	6.7e-05	2.1e+06	–
0.8	ATI-965 (designed binder, 10Fn3 Adnectin) MGVSDVPRDLEVVAATPTSLLISWTAYDSVDKYYRITYGETGGNSPVQEFTVGPRHHTATISGLKPGVDYTITVYAVYHTEPGYHAHMPISINYRTEIDKPSQHHHHHH	0.71	0.00033	460000	EC50 [2]: 0.21 nM
0.14	ATI-964 (designed binder, 10Fn3 Adnectin; also called parent of ADX_5322_A02) MGVSDVPRDLEVVAATPTSLLISWSYDGSIERYYRITYGETGGNSPVQEFTVPPDQKTATISGLKPGVDYTITVYAVRLEEAHYYRESPISINYRTEIDKPSQHHHHHH	0.21	7.7e-05	360000	EC50 [2]: 0.041 nM
0.11	ATI-968 (designed binder, 10Fn3 Adnectin; also called ADX_1760_C01) MGVSDVPRDLEVVAATPTSLLISWIAPFYNVIYYRITYGETGGNSPVQEFTVPGTGYTATISGLKPGVDYTITVYAVTDGASIASYAFPISINYRTEIDKPSQHHHHHH	0.16	0.00012	750000	EC50 [2]: 0.056 nM
0.038	ATI-966 (designed binder, 10Fn3 Adnectin) MGVSDVPRDLEVVAATPTSLLISWHRFSSIMAYYRITYGETGGNSPVQEFTVAGSVNTATISGLKPGVDYTITVYAVTIHNVSFPISINYRTEIDKPSQHHHHHH	0.028	6.9e-05	2.5e+06	EC50 [2]: 0.028 nM
